Test results as given in patent US20220380801A1, “TRIPARTITE SYSTEMS FOR PROTEIN DIMERIZATION AND METHODS OF USE” (priority 2019, published 2022).

Tests used:
HCV NS3/4A PR (S139A) [1] = target: T1, HCV NS3/4A PR (S139A) (Hepatitis C virus subtype 1a, UniProt A8DG50, A1066T/I1043Q/I1044E/L1039E/L1040E/L1047Q/S1165A, form not given); test: Biacore 8K binding kinetics of PRSIM binding molecules
Procedure: The scFv and Tn3 PRSIM binding molecules were covalently immobilised to a CM5 chip surface using standard amine coupling techniques at a concentration of 1 μg/ml in 10 mM sodium acetate pH 4.5.
(§1) The HCV NS3/4A PR (S139A), or BSA control, was diluted 1:4 (1.25-20 nM)±10 nM simeprevir in 10 mM Hepes pH 7.4, 150 mM NaCl, 0.05% Surfactant P20, 0.01% DMSO, ensuring constant simeprevir and DMSO concentration. The samples were flowed over the chip at 50 μl/min using single cycle kinetics, with 120 sec association and 600 sec dissociation. The chip surface was regenerated with two 20 sec pulses of 10 mM Glycine-HCl pH 3.0. The final sensorgrams were analysed using the Biacore 8K Evaluation Software and the affinity constant KD was determined using a 1:1 binding model. The same method was used for measuring the affinity of the HCV NS3/4A PR mutants for PRSIM_23 with minor deviations. The mutants were diluted 1:4 (2.5-40 nM)±simeprevir in 10 mM Hepes pH 7.4, 150 mM NaCl, 0.05% Surfactant P20, 0.08% DMSO, ensuring constant simeprevir and DMSO concentration. The samples were flowed over the chip at 50 μl/min using single cycle kinetics, with 180 sec association and 600 sec dissociation.

BSA = BSA (Bos taurus, UniProt P02769); test: Biacore 8K BSA control; assay type: binding; design: key: # = no binding; * = minimal non-specific binding; details: 10 nM simeprevir present
Procedure: as §1

HCV NS3/4A PR (S139A) [2] = target: T1, HCV NS3/4A PR (S139A); test: HTRF binding screen; details: in the presence of simeprevir
Procedure: scFv and Tn3 PRSIM binding molecules that were selective for the HCV NS3/4A PR (S139A) were identified in homogeneous time-resolved fluorescence (HTRF®) assays run in parallel to measure binding in the presence and absence of simeprevir. HCV NS3/4A PR (S139A), and serial dilutions of purified PRSIM binding molecules, were prepared in assay buffer (PBS containing 0.4 M potassium fluoride and 0.1% BSA). Streptavidin cryptate (Cisbio) was pre-mixed with either anti-FLAG XL665 (to detect the Tn3 molecules) or anti-c-myc XL665 (to detect the scFv molecules) in assay buffer. For each assay 2.5 μl of sample titration was added to 2.5 μl HCV NS3/4A PR (S139A) and 2.5 μl of pre-mixed detection reagents. Either 2.5 μl simeprevir or 2.5 μl of a DMSO blank were also added to each well. Background was defined using wells with zero sample addition. Assay plates were incubated overnight at 4° C., prior to reading the time resolved fluorescence at 620 nm and 665 nm emission wavelengths using a PerkinElmer Envision plate reader. Data was analysed by calculating % Delta F values for each sample. Delta F was determined according to equation 1.
% Delta F=((sample 665 nm/620 nm ratio value)−(background 665 nm/620 nm ratio value)/(background 665 nm/620 nm ratio value))×100 Equation 1
Selective binding molecules are defined as those scFv and Tn3 PRSIM binding molecules that bind to HCV NS3/4A PR (S139A) in complex with simeprevir and no binding to HCV NS3/4A PR (S139A).

HCV NS3/4A PR (S139A) [3] = target: T1, HCV NS3/4A PR (S139A); test: Phage ELISA; assay type: binding; details: phage ELISA signal with simeprevir divided by signal without simeprevir
Procedure: Specific binding to HCV NS3/4A PR (S139A) was assessed by phage ELISA using single phagemid scFv or Tn3 clones induced for expression as described ((Osbourn et al. 1996)). Briefly, individual TG1 colonies encoding phage clones from round 3 and round 4 selection outputs, and negative control clones, were grown in 96 well plates at […] shaking at 280 rpm to log phase in media containing 100 μg/ml ampicillin and 2% (w/v) glucose. Helper phage was then added to each well and the plates incubated at […] for 1 hour, shaking at 150 rpm. Plates were then centrifuged at 4500 rpm for 10 minutes at room temperature and the media was removed and replaced with media containing 100 μg/ml ampicillin and 50 μg/ml kanamycin. Plates were then incubated overnight at 25° C., shaking at 280 rpm. The following day, phage preparations were blocked by adding an equal volume of 2×PBS containing 6% (w/v) skimmed milk powder (Marvel) to each well of the plate.
Biotinylated HCV NS3/4A PR (S139A) was used to coat 96 well streptavidin-coated plates at 5 μg/ml […] in the presence and absence of a 3-fold excess of simeprevir (5.6 μM). Coated plates were washed with PBS and blocked with PBS containing 3% (w/v) skimmed milk powder (Marvel) for one hour. Following this blocking step, the plate wells were washed three times with PBS, prior to adding the blocked phage preps (produced as described in the phage rescue section). Phage preps were incubated with the antigens for 1 hour at room temperature prior to washing three times with PBS/Tween 20 (0.1% v/v). Phage that bound specifically to the antigen coated plate were detected using an anti-M13 phage-HRP tagged antibody (GE Healthcare), followed by detection using 3,3′, 5,5′-Tetramethylbenzidine (TMB; Sigma). The detection reaction was stopped using 0.5 M H2S04 and plates were read using a […] at 450 nm. Fluorescent readings determined for each clone binding to biotinylated HCV NS3/4A PR (S139A) in the presence of simeprevir was compared to those binding in the absence of simeprevir, by dividing the signal observed in the presence of simeprevir to the signal observed in the absence of simeprevir.

B1: PRSIM_04: scFv PRSIM binding molecule, SEQ ID NO: 11 (protein)
scFv: QVQLVQSGAEVKKPGSSVKVSCKASGGTFSSYAISWVRQAPGQGLEWMGGIIPIFGTANYAQKFQGRVTITADESTSTAYMELSSLRSEDTAVYYCARGMAHFYQFDLWGQGTLVTVSSGGGGSGGGGSGGGGSAQSVLTQPPSASGTPGQRVTISCSGSSSNIGSNTVNWYQQLPGTAPKLLIYSNNQRPSGVPDRFSGSKSGTSASLAISGLQSEDEADYYCAAGDHDHEHVVFGGGTKLTVL
modifications: PRSIM_04
HCV NS3/4A PR (S139A) [1]; 10 nM simeprevir present
  Kd: 11.2 nM
  Rmax: 65.9 RUs
  ka: 1.74e+07 M⁻¹ s⁻¹
  kd: 0.195 s⁻¹
BSA
  BSA control: #
HCV NS3/4A PR (S139A) [2]
  HTRF max. signal (% delta F): 1055 % delta F
HCV NS3/4A PR (S139A) [3]
  Binding fold change [(HCV protease + Simeprevir binding)/HCV protease alone]: 30.3

B2: PRSIM_72: scFv PRSIM binding molecule, SEQ ID NO: 14 (protein)
scFv: QVQLVQSGAEVKKPGSSVKVSCKASGGTFSSYAISWVRQAPGQGLEWMGGIIPIFGTANYAQKFQGRVTITADESTSTAYMELSSLRSEDTAVYYCARGMAHFYQFDLWGQGTLVTVSSGGGGSGGGGSGGGGSAQSVLTQPPSASGTPGQRVTISCSGSSSNIGSNTVNWYQQLPGTAPKLLIYSNNQRPSGVPDRFSGSKSGTSASLAISGLQSEDEADYYCAAGDHDHEHVVFGGGTKLTVL
modifications: PRSIM_72
HCV NS3/4A PR (S139A) [1]; 10 nM simeprevir present
  Kd: 1 nM
  Rmax: 33.4 RUs
  ka: 1.18e+06 M⁻¹ s⁻¹
  kd: 0.00118 s⁻¹
BSA
  BSA control: #
HCV NS3/4A PR (S139A) [2]
  HTRF max. signal (% delta F): 1107 % delta F
HCV NS3/4A PR (S139A) [3]
  Binding fold change [(HCV protease + Simeprevir binding)/HCV protease alone]: 12.5

B3: PRSIM_23: Tn3 protein specific for HCV NS3/4A PR (S139A):simeprevir complex, SEQ ID NO: 5 (protein)
chain: RLDAPSQIEVKDVTDTTALITWVDPRYDDIWWFELTYGIKDVPGDRTTIKLYLNDPYYSIGNLKPDTEYEVSLISYTGDSYSRSGSNPAKITFKTGL
modifications: PRSIM_23
HCV NS3/4A PR (S139A) [1]; 10 nM simeprevir present
  Kd: 6.3 nM
  Rmax: 284 RUs
  ka: 5.03e+06 M⁻¹ s⁻¹
  kd: 0.0318 s⁻¹
HCV NS3/4A PR (S139A) [1]; ‘WT’ (S139A), 20 nM simeprevir
  Kd: 5.4 nM
  Rmax: 215 RUs
  ka: 5.59e+09 M⁻¹ s⁻¹
  kd: 31 s⁻¹
BSA
  BSA control: #
HCV NS3/4A PR (S139A) [2]
  HTRF max. signal (% delta F): 1573 % delta F
HCV NS3/4A PR (S139A) [3]
  Binding fold change [(HCV protease + Simeprevir binding)/HCV protease alone]: 23.8

B4: PRSIM_33: Tn3 PRSIM binding molecule, SEQ ID NO: 7 (protein)
chain: RLDAPSQIEVKDVTDTTALITWYPPGRWYDDIWYFELTYGIKDVPGDRTTIKLARGDDVYSIGNLKPDTEYEVSLISWGPDRGDRAGSNPAKITFKTGL
modifications: PRSIM_33
HCV NS3/4A PR (S139A) [1]; 10 nM simeprevir present
  Rmax: 171.9 RUs
  ka: 3.65e+06 M⁻¹ s⁻¹
  kd: 0.0303 s⁻¹
BSA
  BSA control: #
HCV NS3/4A PR (S139A) [2]
  HTRF max. signal (% delta F): 1704 % delta F

B5: PRSIM_67: scFv PRSIM binding molecule, SEQ ID NO: 13 (protein)
scFv: EVQLVQSGAEVKKPGAAVRISCKTSGYVFTSYYVHWVRQAPGQGLEWMGVINPSGGNTNYAQKFQDRVTMTRDTSTTTVYMELSSLMFDDTAVYYCAKRDYGGPLANWGRGTLVTVSSGGGGSGGGGSGGGGSALSYELTQPPSVSEAPRQRVTISCSGSSSNIGNNAVNWYQQLPGKAPKLLIFYDDLLPSGVSDRFSGSKSGTSASLAISGLQSEDEADYYCAAWDDSLNGLVFGTGTKLTVL
modifications: PRSIM_67
HCV NS3/4A PR (S139A) [1]; 10 nM simeprevir present
  Kd: 11.5 nM
  Rmax: 19.3 RUs
  ka: 1.97e+07 M⁻¹ s⁻¹
  kd: 0.226 s⁻¹
BSA
  BSA control: #
HCV NS3/4A PR (S139A) [2]
  HTRF max. signal (% delta F): 1708 % delta F
HCV NS3/4A PR (S139A) [3]
  Binding fold change [(HCV protease + Simeprevir binding)/HCV protease alone]: 12.7

B6: PRSIM_75: scFv PRSIM binding molecule, SEQ ID NO: 15 (protein)
scFv: EVQLVQSGAEVKKPGSSVKVSCKASGGSFNSYTLDWVRQAPGQGLEWMGGIIPVFGSPNYGQKFQGRVTITADESTSTAYMELSSLKSDDTAVYYCARGLVYQPLDSWGRGTLVTVSSGGGGSGGGGSGGGGSAQAVLTQPSSASGTPGQRVTISCSGSSSNIGSYTVNWYQQFPGTAPKLLIYSNTQRPSGVPDRFSGSKSGTSASLAISGLQSEDEADYYCAAWDDSLNGWVFGGGTKVTVL
modifications: PRSIM_75
HCV NS3/4A PR (S139A) [1]; 10 nM simeprevir present
  Kd: 0.3 nM
  Rmax: 88.8 RUs
  ka: 9.09e+06 M⁻¹ s⁻¹
  kd: 0.00267 s⁻¹
BSA
  BSA control: #
HCV NS3/4A PR (S139A) [2]
  HTRF max. signal (% delta F): 1030 % delta F
HCV NS3/4A PR (S139A) [3]
  Binding fold change [(HCV protease + Simeprevir binding)/HCV protease alone]: 6.9

B7: PRSIM_57: scFv specific for HCV NS3/4A PR (S139A):simeprevir complex, SEQ ID NO: 12 (protein)
scFv: QVQLVQSGAEVKKPGSSVKVSCKASGGTFSSYAISWVRQAPGQGLEWMGGIIPIFGTANYAQKFQGRVTITADESTSTAYMELSSLRSEDTAVYYCARHTNYITVFDYWGQGTLVTVSSGGGGSGGGGSGGGGSAQSVLTQPPSASGTPGQRVTISCSGSSSNIGSNTVNWYQQLPGTAPKLLIYSNNQRPSGVPDRFSGSKSGTSASLAISGLQSEDEADYYCAAWDHHWEQVVFGGGTKLTVL
modifications: PRSIM_57
HCV NS3/4A PR (S139A) [1]; 10 nM simeprevir present
  Kd: 15 nM
  Rmax: 69.1 RUs
  ka: 1.73e+07 M⁻¹ s⁻¹
  kd: 0.26 s⁻¹
BSA
  BSA control: #
HCV NS3/4A PR (S139A) [2]
  HTRF max. signal (% delta F): 1076 % delta F
HCV NS3/4A PR (S139A) [3]
  Binding fold change [(HCV protease + Simeprevir binding)/HCV protease alone]: 15.7
